Reference: the Immune Epitope Database (IEDB)

What was measured:
HLA-A*02:03 = assay: IEDB peptide-MHC binding, purified MHC/direct/fluorescence; filed as Kd, often an IC50 or EC50 that approximates it; ≥ and ≤ were set here for values at or beyond the usual limits of such assays
HLA-A*02:11 = assay: as above
HLA-A*02:12 = assay: as above
HLA-A*02:16 [1] = assay: as above; conditions: source organism: Zaire ebolavirus
HLA-A*02:19 [2] = assay: as above
HLA-A*23:01 = assay: as above
HLA-A*24:03 = assay: as above
HLA-A*29:02 = assay: as above
HLA-A*68:02 = assay: as above
HLA-B*27:05 = assay: as above; conditions: source organism: Ebola virus - Gabon (1994-1997)
HLA-A*02:01 = assay: IEDB peptide-MHC binding, purified MHC/competitive/fluorescence; filed as Kd, often an IC50 or EC50 that approximates it; ≥ and ≤ were set here for values at or beyond the usual limits of such assays
HLA-A*26:01 = assay: as above
HLA-A*69:01 = assay: as above
HLA-B*15:01 = assay: as above
HLA-B*15:17 = assay: as above
HLA-B*18:01 = assay: as above
HLA-B*39:01 = assay: as above
HLA-B*46:01 = assay: as above
HLA-B*51:01 = assay: as above
HLA-B*57:01 = assay: as above
HLA-A*01:01 = assay: IEDB peptide-MHC binding, purified MHC/direct/fluorescence; filed as Kd, often an IC50 or EC50 that approximates it; ≥ and ≤ were set here for values at or beyond the usual limits of such assays; conditions: source organism: Reston ebolavirus - Reston
HLA-A*03:01 [3] = assay: as above
HLA-B*27:03 = assay: IEDB peptide-MHC binding, purified MHC/competitive/fluorescence; filed as Kd, often an IC50 or EC50 that approximates it; ≥ and ≤ were set here for values at or beyond the usual limits of such assays
HLA-B*15:02 = assay: as above
HLA-A*11:01 = assay: IEDB peptide-MHC binding, purified MHC/direct/fluorescence; filed as Kd, often an IC50 or EC50 that approximates it; ≥ and ≤ were set here for values at or beyond the usual limits of such assays; conditions: source organism: Entamoeba histolytica
HLA-A*31:01 = assay: IEDB peptide-MHC binding, purified MHC/competitive/fluorescence; filed as Kd, often an IC50 or EC50 that approximates it; ≥ and ≤ were set here for values at or beyond the usual limits of such assays; conditions: source organism: Entamoeba histolytica
HLA-A*32:07 = assay: as above; conditions: source organism: Entamoeba histolytica
HLA-B*15:42 = assay: as above; conditions: source organism: Entamoeba histolytica
HLA-B*45:06 = assay: as above; conditions: source organism: Entamoeba histolytica
HLA-B*83:01 = assay: as above; conditions: source organism: Entamoeba histolytica
HLA-A*03:01 [4] = assay: as above; conditions: source organism: Zaire ebolavirus
HLA-C*15:02 = assay: IEDB peptide-MHC binding, purified MHC/direct/fluorescence; filed as Kd, often an IC50 or EC50 that approximates it; ≥ and ≤ were set here for values at or beyond the usual limits of such assays; conditions: source organism: Human immunodeficiency virus type 1 (Z-84 ISOLATE)
HLA-A*02:16 [5] = assay: IEDB peptide-MHC binding, purified MHC/competitive/fluorescence; filed as Kd, often an IC50 or EC50 that approximates it; ≥ and ≤ were set here for values at or beyond the usual limits of such assays; conditions: source organism: Human immunodeficiency virus type 1 (Z-84 ISOLATE)
HLA-A*02:19 [6] = assay: as above; conditions: source organism: Human immunodeficiency virus type 1 (Z-84 ISOLATE)
[7] = source organism: Zaire ebolavirus
[8] = source organism: Reston ebolavirus
[9] = source organism: Vibrio vulnificus CMCP6
[10] = source organism: Human immunodeficiency virus type 1 (Z-84 ISOLATE)

Measured: Kd

GRYNLISPK
0.0746 µM: HLA-B*27:05
≥ 20 µM: HLA-A*02:03; [7] | HLA-A*02:11; [7] | HLA-A*02:12; [7] | HLA-A*02:16 [1] | HLA-A*02:19 [2]; [7] | HLA-A*23:01; [7] | HLA-A*24:03; [7] | HLA-A*29:02; [7] | HLA-A*68:02; [7] | HLA-A*02:01; [7] | HLA-A*26:01; [7] | HLA-A*69:01; [7] | HLA-B*15:01; [7] | HLA-B*15:17; [7] | HLA-B*18:01; [7] | HLA-B*39:01; [7] | HLA-B*46:01; [7] | HLA-B*51:01; [7] | HLA-B*57:01; [7]

ITDEINQIK
≥ 20 µM: HLA-A*01:01 | HLA-A*02:03; [8] | HLA-A*02:11; [8] | HLA-A*02:12; [8] | HLA-A*02:19 [2]; [8] | HLA-A*03:01 [3]; [8] | HLA-A*23:01; [8] | HLA-A*24:03; [8] | HLA-A*29:02; [8] | HLA-A*68:02; [8] | HLA-A*02:01; [8] | HLA-A*26:01; [8] | HLA-A*69:01; [8] | HLA-B*15:01; [8] | HLA-B*15:17; [8] | HLA-B*18:01; [8] | HLA-B*27:03; [8] | HLA-B*39:01; [8] | HLA-B*46:01; [8] | HLA-B*51:01; [8] | HLA-B*57:01; [8]

NMQESSKSF
0.0643 µM: HLA-B*15:02; source organism: Orientia tsutsugamushi str. Ikeda

NTFAAWLPM
0.193 µM: HLA-B*15:02; source organism: Giardia lamblia ATCC 50803

PYWQGIWDK
0.013 µM: HLA-A*24:03; [9]
0.006 µM: HLA-A*23:01; [9]

RMYWGVNPK
≤ 0.001 µM: HLA-A*31:01
0.0014 µM: HLA-A*03:01 [3]; source organism: Entamoeba histolytica
0.0139 µM: HLA-A*32:07
0.0016 µM: HLA-A*11:01
≥ 5 µM: HLA-B*15:42 | HLA-B*45:06 | HLA-B*83:01

SLLHESTLK
≥ 20 µM: HLA-A*02:03; [7] | HLA-A*02:11; [7] | HLA-A*02:12; [7] | HLA-A*02:16 [1] | HLA-A*02:19 [2]; [7] | HLA-A*23:01; [7] | HLA-A*24:03; [7] | HLA-A*29:02; [7] | HLA-A*68:02; [7] | HLA-A*02:01; [7] | HLA-A*26:01; [7] | HLA-A*69:01; [7] | HLA-B*15:01; [7] | HLA-B*15:17; [7] | HLA-B*18:01; [7] | HLA-B*27:03; [7] | HLA-B*39:01; [7] | HLA-B*46:01; [7] | HLA-B*51:01; [7] | HLA-B*57:01; [7]
0.0241 µM: HLA-A*03:01 [4]

WLRAMPPRM
≥ 20 µM: HLA-B*15:02; source organism: Vibrio vulnificus YJ016

YIKIFIMIV
≥ 20 µM: HLA-C*15:02 | HLA-A*02:01; [10] | HLA-A*02:16 [5] | HLA-A*02:19 [6] | HLA-A*69:01; [10]
